Where only a bound is given, the exact number is not on record here.

The results in this text go back to patent US20120141441.

The data set deals with Cre recombinase (bacteriophage P1 ?). Briefly: cell_activity. The conditions noted are these: excision of reprogramming cassette in iPSC; typically 50% or more of clones; verified by Southern blot and PCR.

Take “loxP sites flanking reprogramming cassette (p4FLR)”: the activity (% clones with EGFP loss) was greater than 50.
